The target in this assay is T1, ICAM-1 fused to monomeric EGFP (mEGFP) or to mRFP1, P05362.
T1 chain: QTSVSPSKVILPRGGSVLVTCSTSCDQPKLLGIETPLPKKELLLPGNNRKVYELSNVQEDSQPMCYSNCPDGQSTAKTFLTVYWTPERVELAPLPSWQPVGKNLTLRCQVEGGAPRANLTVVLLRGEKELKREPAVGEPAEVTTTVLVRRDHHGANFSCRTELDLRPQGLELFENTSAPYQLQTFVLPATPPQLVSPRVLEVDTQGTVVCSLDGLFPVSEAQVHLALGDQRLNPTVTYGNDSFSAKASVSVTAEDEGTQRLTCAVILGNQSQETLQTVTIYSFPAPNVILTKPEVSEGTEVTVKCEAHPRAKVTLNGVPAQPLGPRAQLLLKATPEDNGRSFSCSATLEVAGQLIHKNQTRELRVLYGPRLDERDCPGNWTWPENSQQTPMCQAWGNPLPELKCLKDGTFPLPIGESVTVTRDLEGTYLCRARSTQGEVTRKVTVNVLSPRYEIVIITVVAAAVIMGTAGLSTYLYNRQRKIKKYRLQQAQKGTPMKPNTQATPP
Briefly: FRET or BRET. The note with it: remark: other sources report otherwise.

Our source for the FRET efficiency and percent of pixels with positive FRET values is article PMC2575792.

B1: ICAM-1 fused to monomeric EGFP (mEGFP) or to mRFP1, P05362 28-532 (receptor)
chain: T1 chain
For B1, the FRET efficiency was 14 to 34% and the percent of pixels with positive FRET is 12%.
